The values that follow come from article PMC6044281, “Cooperative Domain Formation by Homologous Motifs in HOIL-1L and SHARPIN Plays A Crucial Role in LUBAC Stabilization” (Cell reports, 2018).

Where a chain is given by its changes, count along the chain named. In names and notes the source's numbering stands.

The chains are these.
B1: mHOIP_(474–630) (domain or fragment, mouse, UniProt Q924T7 474-630, looked up)
chain: RQDKMRKEGLQLVSMIQEGETAGASPEEVFSALQYSGTEVPLQWLRSELSYVLEMVAELAGQQDPELGAFSCQEARKAWLDRHGNLDEAVEECVRARRRKVHELQSLGFGPKEGSLQALFQHGGDVARALTELQRQRLEPFHQRLWDRDPEPTPCWD
notes: also called double-UBA (D-UBA) domain
B2: mSHARPIN_(163–341) (domain or fragment, mouse, UniProt Q91WA6 163-341, looked up)
chain: SSGNFKKEELATRLSQAIAGGDEKAAAQVAAVLAQHHVALNVQLMEAWFPPGPIRLQVTVEDATSVLSSSSSAHVSLKIHPHCSIAALQDQVFSEFGFPPAVQRWVIGRCLCMPERSLASYGVSQDGDPAFLYLLSAPREVSGQSLQNSKMDRKLGLFPQSLGLPHDLQPSSSSLPSPS
B3: GST-mHOIP D-UBA (aa 466–630) UBA2^mut (domain or fragment, mouse, UniProt Q924T7 466-630, looked up)
chain: SCGDPEKQRQDKMRKEGLQLVSMIQEGETAGASPEEVFSALQYSGTEVPLQWLRSELSYVLEMVAELAGQQDPELGAFSCQEARKAWLDRHGNLDEAVEECVRARRRKVHELQSLGFGPKEGSLQALFQHGGDVARALTELARQRAEPAHQRLWDRDPEPTPCWD
notes: also called UBA2^mut [Q607A/L611A/F614A]; not shown: GST, N-terminal, kept
B4: GST-mHOIP D-UBA (aa 466–630) UBA1^mut (domain or fragment, mouse, UniProt Q924T7 466-630, looked up)
chain: B3 chain with R9A, L18A, V21A, A142Q, A146L, A149F
notes: also called UBA1^mut [R474A/L483A/V486A]; not shown: GST, N-terminal, kept
B5: GST-mHOIP_(466–630) (domain or fragment, mouse, UniProt Q924T7 466-630, looked up)
chain: B3 chain with A142Q, A146L, A149F
notes: Captured on the SPR chip via an anti-GST antibody; also called mHOIP fragment containing the UBA domains; not shown: GST, N-terminal, kept
B6: mHOIL-1L_(1–140) (domain or fragment, mouse, UniProt Q9WUB0 1-140, looked up)
chain: MDEKTKKAEEMALSLARAVAGGDEQAAIKYATWLAEQRVPLRVQVKPEVSPTQDIRLCVSVEDAYMHTVTIWLTVRPDMTVASLKDMVFLDYGFPPSLQQWVVGQRLARDQETLHSHGIRRNGDGAYLYLLSARNTSLNP
notes: mouse HOIL-1L, LTM and UBL, aa 1-140; Used as SPR analyte and in the crystal; also called HOIL-1L LTM-UBL (aa 1–140); mHOIL-1L containing UBL (aa 1–140)
B7: mSHARPIN_(163–301) (domain or fragment, mouse, UniProt Q91WA6 163-301, looked up)
chain: SSGNFKKEELATRLSQAIAGGDEKAAAQVAAVLAQHHVALNVQLMEAWFPPGPIRLQVTVEDATSVLSSSSSAHVSLKIHPHCSIAALQDQVFSEFGFPPAVQRWVIGRCLCMPERSLASYGVSQDGDPAFLYLLSAPR
notes: No tag is named for these experiments; it may be the same MBP fusion as m12; also called SHARPIN LTM-UBL
B8: MBP-mSHARPIN UBL_(163–301) (domain or fragment, mouse, UniProt Q91WA6 163-301, looked up)
chain: B7 chain
notes: not shown: MBP, N-terminal, kept

For assay [1], the target named is B5. Kind of assay: SPR. The following applies: response read at end of injection (about 185 s); GST-mHOIP D-UBA WT immobilized with anti-GST antibody; parent: est. 270; read off a plot.
The target of the assay “mSHARPIN_(163–341)” is B2. Kind of assay: crystal structure; LUBAC ternary complex core; sitting-drop vapor diffusion at 20°C, 1.8 M magnesium sulfate, 0.1 M MES pH 6.5; 2.4 Å. As to conditions: both partners purified.
The assay “mHOIP_(474–630)” has as its target B1. Kind of assay: SEC; analytical size-exclusion chromatography of the LUBAC core subunits. As to conditions: both partners purified.
The target of the assay “mHOIL-1L_(1–140)” is B6. The description is as above. As to conditions: both partners purified.
Assay [2] has as its target T1, mHOIL-1L_(1–140) and mSHARPIN_(163–301) applied together (mouse, UniProt Q9WUB0 1-140; Q91WA6 163-301).
T1 construct: mouse HOIL-1L aa 1-140, as m2; The two fragments were mixed and applied together as one SPR analyte; they heterodimerise through their LTMs; also called the two UBL-containing proteins applied simultaneously; both proteins together
T1 sequence (looked up) 1: B6 chain
T1 sequence (looked up) 2: B7 chain
Kind of assay: SPR; GST-mHOIP D-UBA (aa 466–630; WT or mutant) immobilised via an anti-GST antibody; HOIL-1L and SHARPIN fragments applied together as analytes (500 mg/ml each as printed); stability judged by dissociation. The following applies: both partners purified.

For assay [3], the target named is B5. Kind of assay: SPR; GST-mHOIP D-UBA (aa 466–630; WT or mutant) immobilised on the sensor chip via an anti-GST antibody; one UBL-containing fragment alone as analyte. The following applies: both partners purified.
A further assay addresses T2, mHOIL-1L_(1–189)-strep (mouse, UniProt Q9WUB0 1-189).
T2 construct: mouse HOIL-1L LTM-UBL, aa 1-189; Captured on the SPR chip with an anti-strep antibody; also called HOIL-1L_(1–189) (LTM-UBL); not shown: strep, C-terminal, kept
T2 sequence (looked up): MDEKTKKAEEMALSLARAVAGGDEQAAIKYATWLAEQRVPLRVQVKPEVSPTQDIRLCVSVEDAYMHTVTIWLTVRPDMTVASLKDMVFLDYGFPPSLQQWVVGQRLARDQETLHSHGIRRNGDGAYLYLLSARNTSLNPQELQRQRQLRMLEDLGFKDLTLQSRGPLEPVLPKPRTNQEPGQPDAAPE
Put plainly: SPR; mHOIL-1L_(1–189)-strep immobilised on the sensor chip with anti-strep antibody; MBP-mSHARPIN fragments as analytes. As to conditions: both partners purified.

For “mHOIL-1L_(1–140) and mSHARPIN_(163–301) applied together (from UniProt Q9WUB0;Q91WA6) mHOIL-1L: L15A; V19A”, the response with GST-mHOIP_(466–630) [1] turned out to be 90 RU. On to “mHOIL-1L_(1–140) and mSHARPIN_(163–301) applied together (from UniProt Q9WUB0;Q91WA6) mSHARPIN: L176A; I180A”, for which the response with GST-mHOIP_(466–630) [1] was 70 RU. Regarding B1, in the assay with mSHARPIN_(163–341), the binding result is listed as “binds”. Regarding B2, the “stoichiometry N” value with mHOIP_(474–630) and in the assay with mHOIL-1L_(1–140) was 1 each time.

Turning to B3, the binding result in assay [2] is listed as “binds”. On to B4, for which the binding result in assay [2] was “binds”. Turning to B5, the dissociation rate constant (koff) in assay [2] amounted to 0.000111 s⁻¹. Turning to B6, the Kd with GST-mHOIP_(466–630) [3] worked out at 1.34 µM. Moreover, in the assay with mHOIP_(474–630), the “stoichiometry N” value was 1. Also, the binding result with mSHARPIN_(163–341) is reported as “binds”.

Molecule B7 yielded a Kd with GST-mHOIP_(466–630) [3] of 16 µM. In the case of B8, in the assay with mHOIL-1L_(1–189)-strep, binding was characterised by a dissociation constant (Kd) of 2.04 µM and the koff was 0.00361 s⁻¹.
